Experimental data reported in patent US20110318339A1 (FABRUS, published 2011).
Substitutions are numbered along the chain they refer to. Names may count otherwise. Blank lines part the entries; values can stand above or below the binder they belong to.

Legend:
[1] = target: T1, recombinant human DLL4 (Cat# 1506-D4/CF, R&D Systems) (human, UniProt Q9NR61 27-529); assay: ELISA, DLL4 coated, Fab 20 nM
T1 construct: Bought protein; also called hDLL4; rHuman DLL4
Protocol: (§1) The plate was blocked by adding 1% BSA in Tris-buffered Saline Tween (TBST) and incubating for 1 hour at room temperature followed by washing 2 times with 150 μl TBST. A Fab antibody was serially diluted in 1% BSA in PBS. A 50 μl aliquot of each serial dilution was added, in triplicate, to each well and the plate was incubated for 1 hour at room temperature followed by washing 2 times with TBST. 50 μl of either goat anti-human kappa HRP conjugated secondary antibody (Cat # A7164-1 mL, Sigma-Aldrich) or goat anti-human lambda HRP conjugated secondary antibody (Cat # L1645-1 ml, Sigma-Aldrich), diluted 1:1000 in 1% BSA in PBS, was added to each well and the plate was incubated for 30 minutes at room temperature followed by washing 3 times with 200 μl TBST. Finally, 50 μl TMB one-component reagent (Cat # TMBW-1000-01, BioFax) was added and allowed to develop for 2 minutes at room temperature. The reaction was immediately halted by the addition of 50 μl 0.5M H₂SO₄ and the absorbance at 450 nm was measured using an ELISA plate reader.

[2] = target: T1, recombinant human DLL4 (Cat# …); assay: ELISA, DLL4 coated, Fab 25 nM
Protocol: as §1

[3] = target: T1, recombinant human DLL4 (Cat# …); assay: ELISA, DLL4 coated, Fab 50 nM
Protocol: (§2) In this example, an ELISA binding assay was used to assess the dose-dependent binding of Fab antibodies to recombinant human DLL4 and recombinant mouse DLL4.
as §1

[4] = target: T1, recombinant human DLL4 (Cat# …); assay: ELISA, DLL4 coated, Fab 100 nM
Protocol: as §2, §1

[5] = target: T1, recombinant human DLL4 (Cat# …); assay: ELISA, DLL4 coated, Fab 0.74 nM
Protocol: as §1

[6] = target: T1, recombinant human DLL4 (Cat# …); assay: ELISA, DLL4 coated, Fab 2.22 nM
Protocol: as §1

[7] = target: T1, recombinant human DLL4 (Cat# …); assay: ELISA, DLL4 coated, Fab 6.67 nM
Protocol: as §1

[8] = target: T1, recombinant human DLL4 (Cat# …); assay: ELISA, DLL4 coated, Fab 12.5 nM
Protocol: as §2, §1

[9] = target: T1, recombinant human DLL4 (Cat# …); assay: SPR (ProteOn), hDLL4 amine-coupled on chip
Protocol: In this example, the binding affinities of selected anti-DLL4 Fabs to recombinant human DLL4 (hDLL4, Cat# 1506-D4/CF, R&D Systems) were analyzed using Surface Plasmon Resonance (SPR) (Biosensor Tools, Salt Lake City, Utah). The Fabs analyzed include germline-derived antibodies and germline-modified DLL4 antibodies. Recombinant hDLL4 was immobilized on a SPR chip using amine coupling at three different surface densities. The Fabs were serially diluted 3-fold, with an initial concentration of 1 μM. Binding studies were run on a ProteOn system using a GLM sensor chip in 10 mM HEPES, pH 7.4, 150 mM NaCl, 0.01% Tween-20, and 0.1 mg/ml BSA at 25° C. The response data from each surface was globally fit to determine the binding constants.

[10] = target: T2, Recombinant Human DLL4 (Cat# 1506-D4/CF, R&D Systems) (human, UniProt Q9NR61 27-529); assay: ELISA, DLL4 coated
T2 construct: Bought protein; also called rHuman DLL4; hDLL4

ELISA absorbance at 450 nm [1]: 0.018 A450
ELISA absorbance at 450 nm [2]: 0.16 A450
ELISA absorbance at 450 nm [3]: 0.18 A450
ELISA absorbance at 450 nm [4]: 0.18 A450
ELISA absorbance at 450 nm [5]: 0.019 A450
ELISA absorbance at 450 nm [6]: 0.014 A450
ELISA absorbance at 450 nm [7]: 0.042 A450
ELISA absorbance at 450 nm [8]: 0.18 A450
B1: Fab VH5-51_IGHD5-18*01>3_IGHJ4*01 G100K/G104T & V3-4_IGLJ1*01 (Fab, V domains shown)
VH: EVQLVQSGAEVKKPGESLKISCKGSGYSFTSYWIGWVRQMPGKGLEWMGIIYPGDSDTRYSPSFQGQVTISADKSISTAYLQWSSLKASDTAMYYCARRKYSYTYDYFDYWGQGTLVTVSS
VL: QTVVTQEPSFSVSPGGTVTLTCGLSSGSVSTSYYPSWYQQTPGQAPRTLIYSTNTRSSGVPDRFSGSILGNKAALTITGAQADDESDYYCVLYMGSGISYVFGTGTKVTVL
notes: Fab made in E. coli: VH on CH1 with His6 and Flag tags (Plasmid A), VL on lambda CL (Plasmid E); also called H: KT & L: wt

ELISA absorbance at 450 nm [1]: 0.027 A450
ELISA absorbance at 450 nm [5]: 0.006 A450
ELISA absorbance at 450 nm [6]: 0 A450
ELISA absorbance at 450 nm [7]: 0.005 A450
B2: Fab VH5-51_IGHD5-18*01>3_IGHJ4*01 G100K/G104T G24L/S28R/G35V & V3-4_IGLJ1*01 (Fab, V domains shown)
VH: B1 VH with G24L, S28R, G35V
VL: B1 VL
notes: Fab made in E. coli: VH on CH1 with His6 and Flag tags (Plasmid A), VL on lambda CL (Plasmid E); also called H: KT LRV & L: wt

ELISA absorbance at 450 nm [1]: 0.087 A450
ELISA absorbance at 450 nm [5]: 0 A450
ELISA absorbance at 450 nm [6]: 0.007 A450
ELISA absorbance at 450 nm [7]: 0.023 A450
B6: Fab VH5-51_IGHD5-18*01>3_IGHJ4*01 G100K/G104T & V3-4_IGLJ1*01 M94R/S96M (Fab, V domains shown)
VH: B1 VH
VL: B1 VL with M94R, S96M
notes: Fab made in E. coli: VH on CH1 with His6 and Flag tags (Plasmid A), VL on lambda CL (Plasmid E); also called H: KT & L: RM

fold increased affinity against Fab mutant APFF (H:APFF & L:wt) [10]: 4 fold
B7: Fab H:APFF & L:NDH (Fab, V domains shown)
VH: QVQLVQSGAEVKKPGASVKVSCKASGYTFTSYYMHWVRQAPGQGLEWMGIINPSGGSTSYAQKFQGRVTMTRDTSTSTVYMELSSLRSEDTAVYYCAREEYAPFSAEYFQFWGQGTLVTVSS
VL: EIVLTQSPATLSLSPGERATLSCRASQNVDHYLAWYQQKPGQAPRLLIYDASNRATGIPARFSGSGSGTDFTLTISSLEPEDFAVYYCQQRSNWPPWTFGQGTKVEIKR
notes: Fab, kappa light chain; also called VH1-46_IGHD6-6*01_IGHJ1*01 S102A/S103P/S104F/H111F & L6_IGKJ1*01 S28N/S30D/S31H

ELISA absorbance at 450 nm [1]: 0.39 A450
ELISA absorbance at 450 nm [5]: 0.028 A450
ELISA absorbance at 450 nm [6]: 0.069 A450
ELISA absorbance at 450 nm [7]: 0.212 A450
B8: Fab VH1-46_IGHD6-6*01_IGHJ1*01 S102A/S103P/S104F/H111F I51A/N52L/S54T/G56H & L6_IGKJ1*01 S28N/S30D/S31H S52L/A55G (Fab, V domains shown)
VH: B7 VH with I51A, N52L, S54T, G56H
VL: B7 VL with S52L, A55G
notes: Fab made in E. coli: VH on CH1 with His6 and Flag tags (Plasmid A), VL on kappa CL (Plasmid C); also called H: APFF ALTH & L: NDH LG

Second part, the binder before the results:

B3: Fab VH5-51_IGHD5-18*01>3_IGHJ4*01 G100K/G104T G24T/S28R/G35V & V3-4_IGLJ1*01 M94R/S96M (Fab, V domains shown)
VH: B1 VH with G24T, S28R, G35V
VL: B1 VL with M94R, S96M
notes: Fab made in E. coli: VH on CH1 with His6 and Flag tags (Plasmid A), VL on lambda CL (Plasmid E); also called H: KT TRV & L: RM; KT TRV-V3-4 RM
ELISA absorbance at 450 nm [1]: 0.122 A450
ELISA absorbance at 450 nm [5]: 0.006 A450
ELISA absorbance at 450 nm [6]: 0.028 A450
ELISA absorbance at 450 nm [7]: 0.062 A450
Kd [9]: 40.3 nM
koff [9]: 0.101 s⁻¹
kon [9]: 2.53e+06 M⁻¹ s⁻¹

B4: Fab VH5-51_IGHD5-18*01>3_IGHJ4*01 G100K/G104T G24A/S28R/G35V & V3-4_IGLJ1*01 (Fab, V domains shown)
VH: B1 VH with G24A, S28R, G35V
VL: B1 VL
notes: Fab made in E. coli: VH on CH1 with His6 and Flag tags (Plasmid A), VL on lambda CL (Plasmid E); also called H: KT ARV & L: wt
ELISA absorbance at 450 nm [1]: 0.054 A450
ELISA absorbance at 450 nm [5]: 0.008 A450
ELISA absorbance at 450 nm [6]: 0.002 A450
ELISA absorbance at 450 nm [7]: 0.025 A450

B5: Fab VH5-51_IGHD5-18*01>3_IGHJ4*01 G100K/G104T S28R & V3-4_IGLJ1*01 (Fab, V domains shown)
VH: B1 VH with S28R
VL: B1 VL
notes: Fab made in E. coli: VH on CH1 with His6 and Flag tags (Plasmid A), VL on lambda CL (Plasmid E); also called H: KT S28R & L: wt
ELISA absorbance at 450 nm [1]: 0.009 A450
ELISA absorbance at 450 nm [2]: 0.2 A450
ELISA absorbance at 450 nm [3]: 0.23 A450
ELISA absorbance at 450 nm [4]: 0.26 A450
ELISA absorbance at 450 nm [5]: 0 A450
ELISA absorbance at 450 nm [6]: 0 A450
ELISA absorbance at 450 nm [7]: 0.003 A450
ELISA absorbance at 450 nm [8]: 0.18 A450
Kd [9]: 114 nM
koff [9]: 0.0845 s⁻¹
kon [9]: 740000 M⁻¹ s⁻¹

B9: Fab VH1-46_IGHD6-6*01_IGHJ1*01 S102A/S103P/S104F/H111F I51A/N52L/S54T/G56H & L6_IGKJ1*01 S28N/S30D/S31H S52L/A55S (Fab, V domains shown)
VH: B7 VH with I51A, N52L, S54T, G56H
VL: B7 VL with S52L, A55S
notes: Fab made in E. coli: VH on CH1 with His6 and Flag tags (Plasmid A), VL on kappa CL (Plasmid C); also called H: APFF ALTH & L: NDH LS
ELISA absorbance at 450 nm [1]: 0.458 A450
ELISA absorbance at 450 nm [5]: 0.046 A450
ELISA absorbance at 450 nm [6]: 0.04 A450
ELISA absorbance at 450 nm [7]: 0.282 A450
